No end group written: not given here. *: point of attachment. 5‑TAMRA = 5-carboxytetramethylrhodamine label, CN(C)c1ccc2c(-c3ccc(C(=O)*)cc3C(=O)[O-])c3ccc(=[N+](C)C)cc-3oc2c1
Molecular target: Purified Arp2/3 complex
Experiment: fluorescence anisotropy, labelled ArpinA peptide titrated with purified Arp2/3 complex

B1: ArpinA peptide labelled with 5-TAMRA at the N-terminus (peptide)
peptide: {5‑TAMRA}-EIREQGDGAEDEEWDD
  Kd: 384 nM
